Assay results published in the supplement of paper PMC10567573.
± gives the standard deviation.

Experiment: protein stability index of a GFP-peptide fusion (GPS, HEK-293T) (PSI 1-6); higher = more stable
[1] = treatment: DMSO, c terminus: a fixed tail appended
[2] = treatment: MLN4924 1 uM, 8 h, c terminus: a fixed tail appended
[3] = treatment: DMSO, c terminus: native
[4] = treatment: MLN4924 1 uM, 8 h, c terminus: native
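Note: 24-mer peptide tiles fused after GFP, lentivirally expressed, FACS-sorted into six equal bins by GFP/DsRed ratio, decoded by Illumina sequencing, PSI is the read-weighted mean bin number.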

Sequence | protein stability index [1] | protein stability index [2] | protein stability index [3] | protein stability index [4]
NGSDPRSFPLWYEEALKDEEERAQ [MAGEA10] | 5.34 ± 0.36 | 5.42 ± 0.2 |  | 
KLKVQALKDRGLSIPRADTLDEY [LSM1] |  |  | 4.01 ± 0.2 | 4.04 ± 0.33
MVFEVLGHHLLKWIIKSNYQGLPV [SRPK2] | 2.91 ± 0.33 | 3.12 ± 0.27 |  | 
TLTVFPPEETTPSPSRESPLSAP [KLHL13] |  |  | 5.16 ± 0.15 | 5.18 ± 0.08
VGEFPIISPGRVYEYTSCTTFSTT [FBXO3] | 2.3 ± 0.22 | 2.33 ± 0.32 |  | 
PPTINGIKGLQRKERLKPAHIHLQ [KRT34] | 3.34 ± 0.15 | 3.59 ± 0.46 |  | 
NAININELFIEISRRIPSTDANLP [RAB22A] | 2.35 ± 0.18 | 2.18 ± 0.45 |  | 
SSVQSYPGSASLAQSRLEDPGADS [DLX1] | 5.23 ± 0.2 | 5.52 ± 0.24 |  | 
IIHHMRLQAKALQLIVTARTTRGL [INTS4] | 2.5 ± 0.58 | 2.26 ± 0.28 |  | 
PKTNEDFEFLYNALEFWRQEELTR [IQUB] | 2.63 ± 0.31 | 2.23 ± 0.43 |  | 
AELAGVIKRLWKDSGVQACFNRSR [GNAI1] | 2.62 ± 0.23 | 2.42 ± 0.72 |  | 
GLIPTGSGRHPSHSTTPSGPGDEV [ARFIP2] | 5.08 ± 0.17 | 5.04 ± 0.1 |  | 
RPHVHKQTEKTTRVRTVLNEKQLH [ISL2] | 4.21 ± 0.098 | 4.39 ± 0.24 |  | 
EIEQYRLQREKEFKAKEAAALGSR [ATP6V1G1] | 4.15 ± 0.21 | 3.77 ± 0.047 |  | 
QSSCSGPTHTPRPADFSLGSLPGP [VENTX] | 3.83 ± 0.13 | 3.89 ± 0.36 |  | 
QSRRTALATSPITVGDLGIVRRRS [YJU2B] | 4.27 ± 0.16 | 4.36 ± 0.25 |  | 
DGKCAYRASYSDGKLKAPPKPCAG [MLH1] | 4.11 ± 0.3 | 4.06 ± 0.056 |  | 
AVPKRLLEIVGREGVSLTAVLTTH [HAGHL] | 2.5 ± 0.39 | 2.2 ± 0.6 |  | 
LFDFDLEVKPVLEVLVGKTIEQSL [RSPH3] | 2.48 ± 0.42 | 2.42 ± 0.039 |  | 
AEIATASASASTTTTVTAVTAEVD [SNAP91] | 5.62 ± 0.23 | 5.47 ± 0.39 |  | 
QVLDEVIPIHGKGNFPTMEVKPKD [TENT5D] | 4.61 ± 0.18 | 4.6 ± 0.24 |  | 
MLLRKFAESKGTGREKPGPLDFEA [FCHO1] | 2.84 ± 0.034 | 2.86 ± 0.5 |  | 
AREGRETLKCLSHHVADAYTSSQK [TOR1AIP2] | 4.48 ± 0.35 | 4.44 ± 0.37 |  | 

Sequence | protein stability index [1] | protein stability index [2] | protein stability index [3] | protein stability index [4]
YNVYSTFQSHEPEFDYLKSLEIEE [PPP2R2B] | 3.86 ± 0.2 | 3.92 ± 0.26 |  | 
QPKQLIVDDLKGSLKEDLTQHKFI [SPRY1] | 4.14 ± 0.13 | 4.2 ± 0.22 |  | 
AKILPSPVQGSSEDNLSLVCLPRS [DRICH1] | 3.94 ± 0.18 | 4.04 ± 0.18 |  | 
FVFSTEERTQLRLESLEDTHIMKG [TRIB1] | 2.85 ± 0.63 | 3.36 ± 0.41 |  | 
LIRSLFHGFLFMIFQIGVLGFGPT [SOAT1] | 3.52 ± 0.5 | 3.28 ± 0.63 |  | 
TYRSLLESEDCKLPSNPCATTNAC [KRT33B] | 3.99 ± 0.26 | 4.04 ± 0.072 |  | 
APSATIHQGEEEGPLDIWAVVKPG [FBXO34] | 4.71 ± 0.27 | 4.79 ± 0.13 |  | 
SFRENWQRAWVRALNEQACRNGSS [C2CD2L] | 2.7 ± 0.24 | 2.45 ± 0.49 |  | 
QFHALQSKLEERFGPDSKSSALAC [NCF4] | 3.5 ± 0.28 | 3.6 ± 0.54 |  | 
EGLAFLVSCPEGRADCASESACSS [PWWP2B] | 3.6 ± 0.41 | 3.71 ± 0.24 |  | 
IGSKNGGKTTIILRCLDRDEPSKP [DYNC2LI1] | 2.54 ± 0.7 | 3.16 ± 0.32 |  | 
PPSALDQLSRLNITYPMLFKLTNK [UFD1] | 2.48 ± 0.27 | 2.96 ± 0.095 |  | 
KELGQSQKEQGLSDNILSPVMNGG [PDZK1] | 4.73 ± 0.34 | 5.09 ± 0.28 |  | 
ELEGDVAEPLAGPACVTVILPSCV [KLHL14] | 3.32 ± 0.54 | 3.14 ± 0.14 |  | 
VRANDINYQDQIPRTLEEFVGFH [FEM1B] |  |  | 3.21 ± 0.16 | 3.2 ± 0.48
VQYLGQAPELLGGAEPGTYLTGTI [ADAMTS4] | 2.33 ± 0.7 | 2.98 ± 0.72 |  | 
GRRAATALLWLSCSIALLRALATS [GNAS] | 2.26 ± 0.37 | 2.02 ± 0.24 |  | 
SMLPPVNFSIVPYEKKFDTFIPLE [SPATS1] | 2.6 ± 0.26 | 2.49 ± 0.1 |  | 
DGENLKNEEETPSCMASLWTAPLV [CDC25A] | 4.484 ± 0.031 | 4.5 ± 0.19 |  | 
AEERRRQNLQEEKERKLECLPPEP [FAF2] | 5.71 ± 0.18 | 5.51 ± 0.42 |  | 
KEPPLLLGVLHPNTKLRQAERLFE [APMAP] | 2.64 ± 0.38 | 2.78 ± 0.47 |  | 
KQRGYFFLDERLYCESHAKARVKP [PDLIM4] | 2.81 ± 0.64 | 3.11 ± 0.38 |  | 
YRSPEPDPYLSYRWKRRRSYSREH [CLK3] | 3.55 ± 0.33 | 3.71 ± 0.12 |  | 

Sequence | protein stability index [1] | protein stability index [2] | protein stability index [3] | protein stability index [4]
QGDSADETTAHKTEEENSDSDSD [CMTM3] |  |  | 5.6 ± 0.2 | 5.7 ± 0.23
MSSIICEGDTVSQELLDTVLVNLV [PDS5B] | 2.24 ± 0.22 | 2.14 ± 0.53 |  | 
LQLGEGVEFDVLPAFDALGQLTGG [OAS1] | 2.37 ± 0.35 | 2.72 ± 0.51 |  | 
QIGCKLPDDYRCSYRIHNGQKLVV [FBXO3] | 2.06 ± 0.26 | 2.18 ± 0.24 |  | 
FPAEERARVLDRRGCSRVEGGGTS [ANKRD9] | 4.42 ± 0.2 | 4.53 ± 0.28 |  | 
RITKDNRRHCQACRLKRCVDIGMM [VDR] | 2.42 ± 0.36 | 2.68 ± 0.29 |  | 
TPPTTTAEIATASASASTTTTVTA [SNAP91] | 5.39 ± 0.15 | 5.3 ± 0.13 |  | 
MSDLLSVFLHLLLLFKLVAPVTFR [CPN1] | 3.09 ± 0.26 | 3.33 ± 0.17 |  | 
KIKPEARRYLEKSIKMGKRNGLHL [NLN] | 2.3 ± 0.44 | 2.53 ± 0.39 |  | 
RVPSFESFEDDCSQSLCLNKPTMS [ETS2] | 4.6 ± 0.16 | 4.55 ± 0.16 |  | 
AESWCYTQVKVVKFSYMWTINNFS [SPOPL] | 3.24 ± 0.56 | 3.01 ± 0.5 |  | 
KVQELMSTHELEKKELEENFEKLR [MTUS2] | 4.97 ± 0.54 | 5.14 ± 0.23 |  | 
KILYDDGKMVEEVDGRATQKLIVN [PTPRD] | 3.92 ± 0.34 | 3.605 ± 0.004 |  | 
GAYIGEGRVEVLKNGEWGTVCDDK [LOXL2] | 4.99 ± 0.36 |  |  | 
NSAHHCVVEVENFLFVLGGEDQWN [KLHL14] | 2.12 ± 0.27 | 2.07 ± 0.3 |  | 
VHRKSCSTGEAGTDGDHNVYPRPP [ZC2HC1C] | 4.29 ± 0.33 | 4.45 ± 0.37 |  | 
SDAWTYCISKNEWIQFNHPYTEKP [KLHDC2] | 2.34 ± 0.18 | 2.37 ± 0.26 |  | 
EIDEKVTDLVQFLLFKYQMKEPIT [MAGEA10] | 2.35 ± 0.5 | 1.75 ± 0.3 |  | 
SIIILLELAILGGLVYYKFFRSH [VTI1B] |  |  | 2.78 ± 0.27 | 2.63 ± 0.45
RMLFWACSTNKPEGYRVSQALREN [FAF2] | 2.27 ± 0.16 | 2.46 ± 0.18 |  | 
QKLREESAARVVLTSLLACLPAGP [DUSP5] | 2.15 ± 0.26 | 2.06 ± 0.13 |  | 
SDSLLQSWNSQSSLLDVQRVPSFE [ETS2] | 3.92 ± 0.3 | 3.76 ± 0.17 |  | 
GLEDAGLDPHFVPTELWPQEAVPL [TEX19] | 4.44 ± 0.13 | 4.62 ± 0.12 |  | 

Sequence | protein stability index [1] | protein stability index [2] | protein stability index [3] | protein stability index [4]
LRVEQKDFPAHRIVLAACSDYFCA [KLHL12] | 2 ± 0.44 | 2.07 ± 0.29 |  | 
LVNMGISVVSYTLKDIHDDQDYLH [FLOT1] | 2.11 ± 0.24 | 2.22 ± 0.31 |  | 
EKTGPQLTSRIKGDWIGLYRHFLK [DENND6A] | 2.15 ± 0.34 | 2.08 ± 0.21 |  | 
PRRCHSAPPQGSCGDELPWTLQRR [PLEKHN1] | 4.79 ± 0.15 | 4.7 ± 0.23 |  | 
KRGFEVVYMTEPIDEYCVQQLKEF [HSP90AB1] | 2.56 ± 0.35 |  |  | 
EVSADDETPNPPQSAQIACSSPSV [MAGEA10] | 5.57 ± 0.28 | 5.42 ± 0.21 |  | 
YFLRGSLPWQGLKADTLKERYQKI [CSNK1G3] | 2.17 ± 0.14 | 2.14 ± 0.39 |  | 
RPRRRDGPEHATRLNGTAKGERRR [DVL3] | 5.06 ± 0.38 | 5.08 ± 0.42 |  | 
ECPSMGTNEAACLLDNPLCADVLF [RHOBTB1] | 3.42 ± 0.34 | 3.94 ± 0.48 |  | 
PLLPPAMGTEPAPSAPEALHSLPG [TBX6] | 5.07 ± 0.074 | 5.06 ± 0.16 |  | 
RRTLQGLEIELQSQLSMKAGLENT [KRT13] | 3.4 ± 0.24 | 3.34 ± 0.37 |  | 
DPHTKKALEAHCRADELASQDGR [PPP2R5C] |  |  | 5.16 ± 0.29 | 5.3 ± 0.12
ASKLKETSPLTAEKLCIYTDNSIK [CCND2] | 4 ± 0.18 | 4.05 ± 0.092 |  | 
STPRPPEASSSPPEGSQDRNTSWG [TLE6] | 5.32 ± 0.17 | 5.291 ± 0.047 |  | 
AKGDNVYEFHLEFLDLVKPEPVYK [HACD3] | 2.41 ± 0.09 | 2.54 ± 0.49 |  | 
EHKLKVVRDQISHCTVKLRQTTGL [TRIM9] | 3.35 ± 0.13 | 3.24 ± 0.25 |  | 
ANGEIQRHAEQQALRLEVRAGPDS [CARM1] | 4.56 ± 0.67 | 4.74 ± 0.19 |  | 
PDQAYDFLLKFLLVGDRDVGKSEI [RAB40A] | 2.46 ± 0.39 | 2.35 ± 0.3 |  | 
FYSAYLVAEKVVVITKHNDDEQYA [HSP90AB1] | 2.18 ± 0.23 | 2.11 ± 0.43 |  | 
ESLPRSEIDEKVTDLVQFLLFKYQ [MAGEA10] | 2.35 ± 0.069 | 2.83 ± 0.5 |  | 
